In one assay the test system is Jurkat T cells. The experiment in a line: IL-9 rescue of ceramide induced Jurkat cell death, WST-8. It counts as cell-based, human. As to conditions: ceramide 50 μM; IL-9 50 ng/ml; three days. The protocol:
Jurkat T cells were pretreated with anti-γc antibodies or ritlecitinib before the application of anti-tumor ceramide (50 μM) and IL-9 (50 ng/ml) for three days. To evaluate cell survival, 10 μl WST-8 reagent was added to each well and incubated for 4 hours before spectrophotometer measurement.
(In general: Tetrazolium dyes change colour on reduction, which living cells bring about.)

The test system of a further assay is BCL-2 expression. The assay is described as follows: IL-7 induced BCL-2 expression in HPB-ALL, flow cytometry. As to conditions: humanized antibodies, 33 nM, vs ritlecitinib. It counts as cell-based, human. The protocol: Several assays, such as were proposed to study cell survival of HPB-ALL from literature [Ribeiro et al., Blood Adv., 2018; 2 (17): 2199-2213] was measured in terms of BCL2 (anti-apoptotic marker) expressing cells by flow cytometry. In brief, HPB-ALL was pre-treated with antibodies or inhibitors for an hour before stimulated with 50 ng/ml IL-7 for 3 days. Cells were harvested and stained with FITC-conjugated BCL-2 antibody (Biolegend) for flow cytometry analysis.

The subject of assay [1] is CD127 internalization and degradation. The assay is described as follows: IL-7 induced CD127 internalization and degradation in HPB-ALL, flow cytometry. It counts as cell-based, human. As to conditions: humanized antibodies, 33 nM, vs ritlecitinib. The text has this:
Specific methods for IL-7 function were developed in HPB-ALL [Henriques et al., Blood., 2010; 115 (16): 3269-77]. IL-7 could trigger the internalization of its own receptor, CD127 (or IL-7Rai), into the cell compartment for degradation. As the CD127 degradation depends on the JAK3 activated status after IL-7 stimulation, blockade of γc binding to CD127 and downstream signaling pathway should stop CD127 internalization and degradation in HPB-ALL.
After antibody or inhibitor pretreatment, HPB-ALL was challenged with 50 ng/ml IL-7 for 3 hours. Surface CD127 expression was performed in live cells while total CD127 expression was investigated in PFA fixed and permeabilized cells. Cells were stained with APC-conjugated CD127 antibody for flow cytometry analysis.
(In general: Flow cytometry measures light scatter and fluorescence of single cells or particles in a stream.)

Assay [2] concerns IL-9 induced ERK phosphorylation. The experiment in a line: Western blot of IL-9 induced ERK phosphorylation in Jurkat T cells. It is filed as cell-based, human. As to conditions: humanized antibodies; 33 nM (5 μg/ml). A general note: In western blotting, separated proteins are transferred to a membrane and probed.
For assay [3], the target named is T1, native γc proteins from human (Homo sapiens, UniProt P31785).
T1 construct: transfected with plasmid expressing full length γc protein from human; expressed in transfected cells; host or cells: HEK-293
T1 sequence (P31785 23-369): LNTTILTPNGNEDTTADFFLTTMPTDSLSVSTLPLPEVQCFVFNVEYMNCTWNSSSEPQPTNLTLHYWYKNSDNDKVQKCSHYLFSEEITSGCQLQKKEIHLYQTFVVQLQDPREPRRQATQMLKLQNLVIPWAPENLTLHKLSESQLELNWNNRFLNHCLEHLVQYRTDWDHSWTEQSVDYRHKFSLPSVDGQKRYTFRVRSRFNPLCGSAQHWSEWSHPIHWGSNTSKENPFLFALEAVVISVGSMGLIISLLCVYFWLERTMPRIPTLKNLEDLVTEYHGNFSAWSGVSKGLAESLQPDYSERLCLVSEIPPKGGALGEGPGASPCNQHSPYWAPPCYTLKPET
The experiment in a line: Binding to native human γc on transfected HEK-293 cells, flow cytometry. As to conditions: FITC-labelled antibody 33 nM (5 μg/ml). It is filed as cell-based. The protocol:
(§1) The binding specificities of humanized anti-γc antibodies to native γc proteins were further evaluated by […] binding assay. In brief, human HEK-293 cells were transfected with plasmid expressing full length γc protein from human, rhesus, cynomolgus or common marmoset. Two days later, transfected cells or non-transfected controls were incubated with FITC-conjugated hSM-05A on ice for an hour before analysis by flow cytometry.

Assay [4] has as its system native γc proteins from common marmoset. The experiment in a line: Binding to native common marmoset γc on transfected HEK-293 cells, flow cytometry. It is filed as cell-based. As to conditions: FITC-labelled antibody 33 nM (5 μg/ml). How it is done:
as §1

Another assay concerns rat γc. The experiment in a line: BLI binding kinetics to rat γc protein.

Positions count from the first letter of the chain named.

rat γc, sequence (as listed by the source): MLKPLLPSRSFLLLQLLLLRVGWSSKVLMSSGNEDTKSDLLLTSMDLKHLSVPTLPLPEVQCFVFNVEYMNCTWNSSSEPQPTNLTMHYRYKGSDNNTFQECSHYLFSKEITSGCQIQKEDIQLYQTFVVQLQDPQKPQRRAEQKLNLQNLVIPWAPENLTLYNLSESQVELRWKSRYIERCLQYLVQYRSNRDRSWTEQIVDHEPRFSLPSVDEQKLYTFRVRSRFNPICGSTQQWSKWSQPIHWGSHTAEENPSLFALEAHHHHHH
native γc proteins from common marmoset, sequence (as listed by the source): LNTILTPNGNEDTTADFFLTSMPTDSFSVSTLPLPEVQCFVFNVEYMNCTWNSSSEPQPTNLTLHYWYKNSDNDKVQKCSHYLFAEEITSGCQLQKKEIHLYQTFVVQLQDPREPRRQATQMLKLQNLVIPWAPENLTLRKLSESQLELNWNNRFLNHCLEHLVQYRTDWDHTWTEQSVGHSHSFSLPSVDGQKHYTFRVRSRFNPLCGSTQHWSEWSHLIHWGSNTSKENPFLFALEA

B1: hSM-05A: full-length humanized anti-γc antibody derived from SM-05A by framework patching (antibody, V domains shown)
VH: QVQLVQSGAEVLKPGASVKVSCKASGYTFTEYTMHWVKQARGQRLEWIGGIDPYNGGATYNQRFKGKATLTTDTSTSTAYMELRNLRSDDTAVYYCARRRLYYGNALDYWGQGTLVTVSS
VL: DIVMTQSPLSLPVTPGEQASISCRSSQSLVHSNGNTYLHWYLQKPGQSPQLLIYKVSSRFSGVPDRFSGSGSGTDFTLKISRVEAEDVGVYFCSQTTHVPFTFGSGTKLEIKR
In the case of B1, the “suppression of IL-9 rescue of ceramide induced Jurkat cell death” value in the assay with Jurkat T cells is listed as “could suppress the IL-9 effect”. In the assay with BCL-2 expression, the “suppression of IL-7 induced BCL-2 upregulation” value was “better suppression to IL-7 induced BCL-2 upregulation and CD127 degradation than ritlecitinib”. In addition, the “suppression of IL-7 induced CD127 degradation” value in assay [1] is “better suppression to IL-7 induced BCL-2 upregulation and CD127 degradation than ritlecitinib”. In addition, the “suppression of IL-9 induced ERK phosphorylation” value in assay [2] is “better suppression to IL-9 induced ERK phosphorylation than hSM-05E”. Moreover, the “binding to native human γc on HEK-293” value in assay [3] was “could bind to the native γc proteins from humans and common marmoset”. Besides, the “binding to native common marmoset γc on HEK-293” value in assay [4] is “could bind to the native γc proteins from humans and common marmoset”.

B2: hSM-05E: full-length humanized anti-γc antibody derived from SM-05E by framework patching (antibody, V domains shown)
VH: B1 VH with Y54N, N55T, A58V, R63K, L101R, N105Y
VL: B1 VL with L29I, H39E, S58N, T96S, T102M
For B2, in the assay on rat γc, the “Ka” value came out at 71000 M⁻¹ s⁻¹ and the “Kdis” value was 0.00208 s⁻¹.

These data come from patent US20260209365A1, “ANTI-COMMON GAMMA CHAIN PROTEINS AND COMPOSITIONS OF MATTER” (SINOMAB BIOSCIENCE LIMITED, priority 2023, published 2026).
